Test results: patent publication US20220356223A1

Target: human high-affinity IL2 receptor (IL2Rαβγ) (human) (UniProt P01589)
Experiment: cell-based or functional assay

Sequence of UniProt P01589 (P01589 22-272, chain 1 of 3): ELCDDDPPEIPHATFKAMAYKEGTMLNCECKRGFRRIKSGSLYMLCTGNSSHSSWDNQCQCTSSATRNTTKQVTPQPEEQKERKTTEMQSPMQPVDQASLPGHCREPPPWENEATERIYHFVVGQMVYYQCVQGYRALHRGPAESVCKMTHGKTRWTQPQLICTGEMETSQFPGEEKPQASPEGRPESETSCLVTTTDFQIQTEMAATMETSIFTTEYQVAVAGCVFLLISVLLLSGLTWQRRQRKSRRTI
Sequence of UniProt P01589 (P14784 27-551, chain 2 of 3, further chain): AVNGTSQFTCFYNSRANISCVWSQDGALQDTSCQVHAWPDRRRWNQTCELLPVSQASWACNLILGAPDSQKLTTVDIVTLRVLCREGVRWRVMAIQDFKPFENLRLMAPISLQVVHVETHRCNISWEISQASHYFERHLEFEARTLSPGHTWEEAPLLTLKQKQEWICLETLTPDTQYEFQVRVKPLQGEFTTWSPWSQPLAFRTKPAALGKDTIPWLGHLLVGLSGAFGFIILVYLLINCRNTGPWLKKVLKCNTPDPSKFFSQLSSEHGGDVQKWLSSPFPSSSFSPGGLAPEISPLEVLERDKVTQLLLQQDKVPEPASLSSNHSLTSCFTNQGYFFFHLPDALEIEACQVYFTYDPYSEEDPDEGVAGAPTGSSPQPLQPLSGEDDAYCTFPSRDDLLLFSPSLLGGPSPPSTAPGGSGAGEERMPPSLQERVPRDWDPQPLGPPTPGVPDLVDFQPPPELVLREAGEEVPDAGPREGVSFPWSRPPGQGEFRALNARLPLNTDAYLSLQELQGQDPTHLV
Sequence of UniProt P01589 (P31785 23-369, chain 3 of 3, further chain): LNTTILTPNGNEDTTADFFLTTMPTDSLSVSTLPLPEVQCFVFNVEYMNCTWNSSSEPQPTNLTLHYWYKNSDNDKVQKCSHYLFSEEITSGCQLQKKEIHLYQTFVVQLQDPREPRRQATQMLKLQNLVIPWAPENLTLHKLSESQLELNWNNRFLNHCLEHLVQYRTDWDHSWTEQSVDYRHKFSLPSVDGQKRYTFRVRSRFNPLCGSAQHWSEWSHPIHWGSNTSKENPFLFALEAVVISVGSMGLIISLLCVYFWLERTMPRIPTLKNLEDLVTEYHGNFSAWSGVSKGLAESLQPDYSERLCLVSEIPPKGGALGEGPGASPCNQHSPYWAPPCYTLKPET

EC50, STAT5 phosphorylation, human CD4+CD25+ Treg cells (%-supernatant): 0.0311
Substance: hAlb-hIL2 (ligand)
